{"source": "patent US20070160987A1", "target": "endogenous human CXC chemokine receptor subtype 3 (CXCR3) (human) (UniProt P49682)", "sequence (P49682 whole entry)": "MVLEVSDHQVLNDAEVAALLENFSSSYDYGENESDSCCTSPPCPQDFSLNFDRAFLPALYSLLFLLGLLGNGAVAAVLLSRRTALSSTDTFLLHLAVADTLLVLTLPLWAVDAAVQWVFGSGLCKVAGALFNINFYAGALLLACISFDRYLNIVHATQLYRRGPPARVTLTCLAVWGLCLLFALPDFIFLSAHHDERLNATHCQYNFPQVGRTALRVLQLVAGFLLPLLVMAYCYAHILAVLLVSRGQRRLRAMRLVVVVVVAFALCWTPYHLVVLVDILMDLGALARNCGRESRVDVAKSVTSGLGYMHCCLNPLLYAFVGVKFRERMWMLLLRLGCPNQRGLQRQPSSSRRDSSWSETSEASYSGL", "test": "cell-based or functional assay"}
{"substance": "monokine inducible γ-interferon (Mig) (from UniProt Q07325 23-125) (ligand)", "values": [{"measurement": "EC50, pigment aggregation in pre-dispersed (MSH-treated) melanophores transfected with the receptor", "value": 0.29, "unit": "nM"}]}
{"substance": "γ-interferon inducible protein-10 (IP-10) (from UniProt P02778 22-98) (ligand)", "values": [{"measurement": "EC50, pigment aggregation in pre-dispersed (MSH-treated) melanophores transfected with the receptor", "value": 0.15, "unit": "nM"}]}
